Data taken from patent US20220016165A1.

Target: interleukin-6 receptor (IL-6R) (human) (UniProt P08887)
Test: cell-based or functional assay

Sequence of interleukin-6 receptor (IL-6R) (human) (P08887 20-468 limits assumed): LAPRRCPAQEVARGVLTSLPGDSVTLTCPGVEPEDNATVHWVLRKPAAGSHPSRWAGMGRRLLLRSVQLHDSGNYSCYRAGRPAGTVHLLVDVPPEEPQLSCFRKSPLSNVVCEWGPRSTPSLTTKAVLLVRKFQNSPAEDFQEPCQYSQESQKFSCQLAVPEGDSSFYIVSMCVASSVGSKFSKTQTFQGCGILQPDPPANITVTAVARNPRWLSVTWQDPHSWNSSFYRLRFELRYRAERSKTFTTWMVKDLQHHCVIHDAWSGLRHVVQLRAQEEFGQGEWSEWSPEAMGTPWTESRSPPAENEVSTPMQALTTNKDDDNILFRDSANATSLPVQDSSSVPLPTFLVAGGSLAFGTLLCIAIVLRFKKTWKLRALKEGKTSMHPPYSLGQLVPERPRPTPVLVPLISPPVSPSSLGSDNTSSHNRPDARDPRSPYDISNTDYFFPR

Substance: tocilizumab (antibody)
- median peak levels of serum IL-6 (day 3-5): 10 fold
